From patent US20220356258A1 (Boehringer Ingelheim, published 2022)

T1: IL-36 receptor (IL-36R) (UniProt Q9HB29 20-335, limits assumed)
T1 sequence (looked up): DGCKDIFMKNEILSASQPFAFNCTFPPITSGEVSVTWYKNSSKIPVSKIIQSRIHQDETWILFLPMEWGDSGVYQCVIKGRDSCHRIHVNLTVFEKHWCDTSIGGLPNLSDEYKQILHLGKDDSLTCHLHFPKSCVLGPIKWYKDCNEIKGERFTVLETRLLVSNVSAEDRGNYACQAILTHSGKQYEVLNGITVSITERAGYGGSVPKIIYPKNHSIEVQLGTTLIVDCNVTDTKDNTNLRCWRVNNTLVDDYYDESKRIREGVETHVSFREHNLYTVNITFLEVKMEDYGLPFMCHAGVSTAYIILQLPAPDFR

B1: Spesolimab AP4 fraction (CEX acidic peak fraction AP4) (antibody, human IgG1, kappa, L234A L235A)
heavy: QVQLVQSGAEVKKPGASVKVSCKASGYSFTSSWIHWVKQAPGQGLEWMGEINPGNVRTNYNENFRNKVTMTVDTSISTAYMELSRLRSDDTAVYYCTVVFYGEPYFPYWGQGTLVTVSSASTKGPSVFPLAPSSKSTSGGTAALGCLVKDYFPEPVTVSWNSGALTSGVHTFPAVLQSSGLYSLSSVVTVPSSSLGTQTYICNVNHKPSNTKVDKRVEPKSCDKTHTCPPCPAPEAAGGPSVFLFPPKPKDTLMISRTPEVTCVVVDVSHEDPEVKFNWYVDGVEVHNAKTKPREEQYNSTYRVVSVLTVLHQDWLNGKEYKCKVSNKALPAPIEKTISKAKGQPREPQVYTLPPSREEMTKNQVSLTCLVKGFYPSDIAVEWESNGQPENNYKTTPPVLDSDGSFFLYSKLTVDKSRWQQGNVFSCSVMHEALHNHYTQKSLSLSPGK
light: QIVLTQSPGTLSLSPGERATMTCTASSSVSSSYFHWYQQKPGQAPRLWIYRTSRLASGVPDRFSGSGSGTDFTLTISRLEPEDAATYYCHQFHRSPLTFGAGTKLEIKRTVAAPSVFIFPPSDEQLKSGTASVVCLLNNFYPREAKVQWKVDNALQSGNSQESVTEQDSKDSTYSLSSTLTLSKADYEKHKVYACEVTHQGLSSPVTKSFNRGEC
notes: Humanized IgG1 anti-IL-36R antibody from CHO-DG44 cells; Cation exchange fraction, RT 16.0-18.7 min, 0.5% of total CEX area; also called most acidic fraction AP4
B2: Spesolimab AP1a fraction (CEX acidic peak fraction AP1a) (antibody, human IgG1, kappa, L234A L235A)
heavy: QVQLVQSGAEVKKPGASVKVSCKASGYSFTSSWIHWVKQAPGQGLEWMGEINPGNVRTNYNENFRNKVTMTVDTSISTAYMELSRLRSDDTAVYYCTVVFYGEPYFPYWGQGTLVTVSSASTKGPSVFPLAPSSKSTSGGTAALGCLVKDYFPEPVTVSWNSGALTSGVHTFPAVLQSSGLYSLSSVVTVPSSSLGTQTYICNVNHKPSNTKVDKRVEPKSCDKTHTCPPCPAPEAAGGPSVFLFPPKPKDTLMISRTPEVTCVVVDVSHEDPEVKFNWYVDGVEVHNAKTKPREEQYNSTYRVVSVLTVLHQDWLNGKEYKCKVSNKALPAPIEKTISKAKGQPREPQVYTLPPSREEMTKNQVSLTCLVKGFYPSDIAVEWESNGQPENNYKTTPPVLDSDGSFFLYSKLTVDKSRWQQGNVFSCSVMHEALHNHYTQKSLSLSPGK
light: B1 light
notes: IgG1; Cation exchange fraction, RT 27.3-28.2 min, 13.6% of total CEX area
B3: Spesolimab AP1c fraction (CEX acidic peak fraction AP1c) (antibody, human IgG1, kappa, L234A L235A)
heavy: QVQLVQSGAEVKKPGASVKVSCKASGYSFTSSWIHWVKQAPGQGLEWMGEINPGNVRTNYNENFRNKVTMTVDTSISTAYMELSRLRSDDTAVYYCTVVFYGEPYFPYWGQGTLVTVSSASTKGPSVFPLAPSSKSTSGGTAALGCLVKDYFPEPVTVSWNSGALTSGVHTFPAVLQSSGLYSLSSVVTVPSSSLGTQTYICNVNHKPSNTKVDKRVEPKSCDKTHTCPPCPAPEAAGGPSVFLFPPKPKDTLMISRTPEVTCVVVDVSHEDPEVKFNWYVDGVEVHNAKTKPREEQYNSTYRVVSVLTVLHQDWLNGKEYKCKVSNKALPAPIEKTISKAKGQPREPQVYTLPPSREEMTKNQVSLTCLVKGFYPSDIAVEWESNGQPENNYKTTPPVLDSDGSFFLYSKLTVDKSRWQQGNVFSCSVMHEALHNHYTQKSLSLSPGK
light: B1 light
notes: IgG1; Cation exchange fraction, RT 24.1-26.0 min, 2.2% of total CEX area
B4: Spesolimab AP3b fraction (CEX acidic peak fraction AP3b) (antibody, human IgG1, kappa, L234A L235A)
heavy: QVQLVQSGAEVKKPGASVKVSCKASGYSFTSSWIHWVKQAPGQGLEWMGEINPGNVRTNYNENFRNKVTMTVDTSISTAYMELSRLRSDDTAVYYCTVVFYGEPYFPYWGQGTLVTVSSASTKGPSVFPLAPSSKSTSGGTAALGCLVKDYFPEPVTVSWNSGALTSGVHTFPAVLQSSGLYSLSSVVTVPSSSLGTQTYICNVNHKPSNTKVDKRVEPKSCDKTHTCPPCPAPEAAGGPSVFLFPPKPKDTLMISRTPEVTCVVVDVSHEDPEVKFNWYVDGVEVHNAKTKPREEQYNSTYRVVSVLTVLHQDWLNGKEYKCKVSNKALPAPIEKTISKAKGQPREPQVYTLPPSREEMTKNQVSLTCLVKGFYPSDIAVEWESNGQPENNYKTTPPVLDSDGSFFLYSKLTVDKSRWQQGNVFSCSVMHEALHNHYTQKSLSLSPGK
light: B1 light
notes: IgG1; Cation exchange fraction, RT 18.7-20.6 min, 0.8% of total CEX area
B5: Spesolimab MP fraction (CEX main peak fraction) (antibody, human IgG1, kappa, L234A L235A)
heavy: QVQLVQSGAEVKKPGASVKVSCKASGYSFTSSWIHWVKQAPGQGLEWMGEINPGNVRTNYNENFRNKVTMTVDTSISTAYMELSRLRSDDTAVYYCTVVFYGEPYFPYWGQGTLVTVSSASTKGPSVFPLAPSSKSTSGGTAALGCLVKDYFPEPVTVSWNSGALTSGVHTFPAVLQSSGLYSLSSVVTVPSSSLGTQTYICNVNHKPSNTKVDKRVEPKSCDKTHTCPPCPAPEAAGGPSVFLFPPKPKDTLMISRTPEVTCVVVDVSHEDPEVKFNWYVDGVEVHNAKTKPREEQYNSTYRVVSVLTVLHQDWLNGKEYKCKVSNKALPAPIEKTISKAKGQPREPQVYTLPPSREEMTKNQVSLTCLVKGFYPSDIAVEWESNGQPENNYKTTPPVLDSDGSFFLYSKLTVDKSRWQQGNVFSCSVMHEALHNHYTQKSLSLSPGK
light: B1 light
notes: IgG1
B6: Spesolimab AP3a fraction (CEX acidic peak fraction AP3a) (antibody, human IgG1, kappa, L234A L235A)
heavy: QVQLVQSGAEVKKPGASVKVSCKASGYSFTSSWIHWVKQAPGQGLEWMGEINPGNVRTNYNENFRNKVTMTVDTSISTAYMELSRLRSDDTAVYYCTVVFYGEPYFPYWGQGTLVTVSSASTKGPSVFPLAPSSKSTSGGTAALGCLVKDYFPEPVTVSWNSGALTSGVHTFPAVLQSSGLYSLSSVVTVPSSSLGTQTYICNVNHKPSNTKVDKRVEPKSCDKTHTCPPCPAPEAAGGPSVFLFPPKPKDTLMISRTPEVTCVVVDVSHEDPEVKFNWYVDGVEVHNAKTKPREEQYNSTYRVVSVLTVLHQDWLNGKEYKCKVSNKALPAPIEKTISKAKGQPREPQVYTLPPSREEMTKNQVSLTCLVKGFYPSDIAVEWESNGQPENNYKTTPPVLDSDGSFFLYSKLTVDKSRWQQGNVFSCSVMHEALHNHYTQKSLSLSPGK
light: B1 light
notes: IgG1; Cation exchange fraction, RT 20.6-22.7 min, 2.8% of total CEX area
B7: Spesolimab AP1b fraction (CEX acidic peak fraction AP1b) (antibody, human IgG1, kappa, L234A L235A)
heavy: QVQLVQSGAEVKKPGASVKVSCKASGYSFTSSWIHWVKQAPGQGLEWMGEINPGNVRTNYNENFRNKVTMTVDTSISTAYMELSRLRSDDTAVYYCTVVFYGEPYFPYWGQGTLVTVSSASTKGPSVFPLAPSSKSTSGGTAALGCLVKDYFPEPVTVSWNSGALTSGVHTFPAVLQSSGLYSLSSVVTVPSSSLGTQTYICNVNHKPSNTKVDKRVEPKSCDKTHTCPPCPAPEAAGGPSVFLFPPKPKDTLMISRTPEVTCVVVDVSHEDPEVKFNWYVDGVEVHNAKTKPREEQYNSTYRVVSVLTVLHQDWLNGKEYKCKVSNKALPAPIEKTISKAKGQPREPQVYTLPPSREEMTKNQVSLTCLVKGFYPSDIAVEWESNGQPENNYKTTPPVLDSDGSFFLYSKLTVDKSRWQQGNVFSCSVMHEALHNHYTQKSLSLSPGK
light: B1 light
notes: IgG1; Cation exchange fraction, RT 26.0-27.3 min, 7.6% of total CEX area
B8: Spesolimab BP1 fraction (CEX basic peak fraction BP1) (antibody, human IgG1, kappa, L234A L235A)
heavy: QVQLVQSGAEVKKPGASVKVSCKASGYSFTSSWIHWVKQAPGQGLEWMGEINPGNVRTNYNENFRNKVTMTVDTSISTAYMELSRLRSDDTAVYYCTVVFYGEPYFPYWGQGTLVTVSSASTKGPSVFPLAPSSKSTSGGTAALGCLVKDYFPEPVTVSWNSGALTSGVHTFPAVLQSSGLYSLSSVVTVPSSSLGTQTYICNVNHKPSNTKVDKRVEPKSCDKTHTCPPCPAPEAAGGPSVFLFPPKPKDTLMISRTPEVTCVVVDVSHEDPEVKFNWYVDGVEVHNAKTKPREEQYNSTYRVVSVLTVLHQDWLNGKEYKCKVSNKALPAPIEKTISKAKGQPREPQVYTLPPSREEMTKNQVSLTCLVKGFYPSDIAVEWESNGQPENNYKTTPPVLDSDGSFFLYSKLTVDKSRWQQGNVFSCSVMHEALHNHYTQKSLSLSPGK
light: B1 light
notes: IgG1; Cation exchange fraction, RT 30.2-31.7 min, 3.75% of total CEX area
B9: Spesolimab CMC2 source (Drug Substance source material, unfractionated) (antibody, human IgG1, kappa, L234A L235A)
heavy: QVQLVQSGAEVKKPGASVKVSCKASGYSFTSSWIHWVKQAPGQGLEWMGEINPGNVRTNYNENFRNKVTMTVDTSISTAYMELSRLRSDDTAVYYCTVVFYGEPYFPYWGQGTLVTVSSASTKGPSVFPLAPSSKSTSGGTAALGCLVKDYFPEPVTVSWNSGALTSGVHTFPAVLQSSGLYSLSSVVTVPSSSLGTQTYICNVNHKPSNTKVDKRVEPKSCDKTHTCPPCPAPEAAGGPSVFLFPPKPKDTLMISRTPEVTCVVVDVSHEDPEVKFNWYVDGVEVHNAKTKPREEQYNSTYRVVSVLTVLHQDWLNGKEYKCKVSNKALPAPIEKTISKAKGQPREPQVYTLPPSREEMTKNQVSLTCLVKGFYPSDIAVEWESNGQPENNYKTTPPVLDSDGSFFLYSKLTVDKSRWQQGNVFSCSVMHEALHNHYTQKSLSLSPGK
light: B1 light
notes: Humanized monoclonal IgG1 anti-IL-36R antibody, CAS 2097104-58-8, produced in CHO-DG44 cells; This is the unfractionated material from which the CEX fractions were collected
B10: Spesolimab BP2 fraction (CEX basic peak fraction BP2) (antibody, human IgG1, kappa, L234A L235A)
heavy: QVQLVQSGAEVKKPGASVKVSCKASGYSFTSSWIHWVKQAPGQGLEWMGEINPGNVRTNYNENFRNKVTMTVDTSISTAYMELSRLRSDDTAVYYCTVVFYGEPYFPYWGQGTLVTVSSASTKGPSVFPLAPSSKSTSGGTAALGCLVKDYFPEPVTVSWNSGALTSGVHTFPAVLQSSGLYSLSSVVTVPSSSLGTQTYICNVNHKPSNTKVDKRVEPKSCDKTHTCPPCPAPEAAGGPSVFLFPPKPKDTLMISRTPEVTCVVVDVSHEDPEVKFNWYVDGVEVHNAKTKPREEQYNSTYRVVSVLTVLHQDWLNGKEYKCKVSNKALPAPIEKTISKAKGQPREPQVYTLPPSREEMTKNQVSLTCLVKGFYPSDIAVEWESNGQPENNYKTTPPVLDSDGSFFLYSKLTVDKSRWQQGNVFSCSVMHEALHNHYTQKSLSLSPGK
light: B1 light
notes: IgG1; Cation exchange fraction, RT 31.7-33.5 min, 2.4% of total CEX area
B11: Spesolimab AP2 fraction (CEX acidic peak fraction AP2) (antibody, human IgG1, kappa, L234A L235A)
heavy: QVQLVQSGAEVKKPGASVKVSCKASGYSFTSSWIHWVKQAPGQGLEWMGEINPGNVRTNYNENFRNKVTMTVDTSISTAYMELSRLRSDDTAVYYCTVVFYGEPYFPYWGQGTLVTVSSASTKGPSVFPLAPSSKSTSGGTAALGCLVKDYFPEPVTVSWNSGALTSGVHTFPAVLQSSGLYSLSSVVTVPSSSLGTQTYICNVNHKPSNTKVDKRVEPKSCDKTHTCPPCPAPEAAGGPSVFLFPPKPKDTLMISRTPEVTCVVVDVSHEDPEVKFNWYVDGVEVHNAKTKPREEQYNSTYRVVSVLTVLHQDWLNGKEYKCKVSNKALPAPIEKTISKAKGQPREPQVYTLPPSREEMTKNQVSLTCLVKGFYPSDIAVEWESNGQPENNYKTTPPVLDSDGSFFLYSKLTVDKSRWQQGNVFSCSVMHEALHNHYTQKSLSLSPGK
light: B1 light
notes: IgG1; Cation exchange fraction, RT 22.7-24.1 min, 2.4% of total CEX area
B12: Spesolimab BP3 fraction (CEX basic peak fraction BP3) (antibody, human IgG1, kappa, L234A L235A)
heavy: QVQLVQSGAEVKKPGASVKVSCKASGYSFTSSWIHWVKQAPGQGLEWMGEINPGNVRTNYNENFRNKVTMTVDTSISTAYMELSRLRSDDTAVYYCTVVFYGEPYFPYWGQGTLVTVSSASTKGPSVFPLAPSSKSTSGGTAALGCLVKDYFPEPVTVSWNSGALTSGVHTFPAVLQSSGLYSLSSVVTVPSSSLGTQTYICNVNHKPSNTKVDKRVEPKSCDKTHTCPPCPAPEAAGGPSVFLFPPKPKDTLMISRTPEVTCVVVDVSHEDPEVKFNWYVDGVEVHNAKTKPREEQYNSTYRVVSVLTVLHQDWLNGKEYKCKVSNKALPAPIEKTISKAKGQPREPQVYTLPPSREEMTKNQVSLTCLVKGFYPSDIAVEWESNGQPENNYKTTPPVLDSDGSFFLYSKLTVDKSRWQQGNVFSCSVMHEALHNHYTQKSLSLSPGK
light: B1 light
notes: IgG1; Cation exchange fraction, RT 33.5-36.2 min, 1.3% of total CEX area; also called most basic fraction BP3

These binders were tested against T2, FcRn (Homo sapiens (Human), UniProt P55899 24-297; P61769 21-119) (assay: SPR, FcRn binding).
T2 construct: In nature it is a heterodimer of the FcRn alpha chain and beta-2-microglobulin; also called neonatal Fc receptor; copies: 1 + 1

Binding [%] (FcRn binding, SPR)	Binder
69	B1
92	B2
90	B3
84	B4
95	B5
88	B6
89	B7
95	B8
94	B9
91	B10

What follows are binders tested against T1, IL-36 receptor (IL-36R) (assay: cell-based or functional assay).

IL36R bioassay Potency [%]	Binder
60	B1
102	B2
102	B3
80	B4
110	B5
91	B6
99	B7
97	B8
94	B11
91	B9
97	B10

What follows are binders tested against T3, protein A/G (immobilized on the SPR sensor chip) (assay: SPR, first step: capture on protein A/G immobilized on the sensor chip).
T3 construct: Capture protein in the first step of the IL36R SPR assay; also called protein A/G sensor chip

Recovery [%] (amount of species binding to protein A/G)	Binder
75	B1
93	B2
90	B3
87	B4
95	B5
88	B6
92	B7
70	B12
93	B8
90	B11
93	B9
84	B10

Each binder was assayed against T1, IL-36 receptor (IL-36R) (assay: SPR, second step: IL36R binding activity of the species bound to protein A/G).

Potency [%] (IL36R binding, SPR)	Binder
93	B1
99	B2
100	B3
93	B4
102	B5
98	B6
100	B7
100	B12
100	B8
99	B11
101	B9
100	B10
